Laboratory results reported in the domain aggregation screens of Martell et al. (2025).

Assay: soluble fraction after stress (log2 fold change); higher = more stays soluble; pooled small domains, quantitative proteomics
Settings: stress: 75 degC
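Further: 20 min heating vs room temperature control held 20 min.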

Sequence | soluble fraction (log2)
HMGFAANLSRLMEYHNISMYRLAKEVGVHQTTVKNWLEEESEPKIAALEKIVGLLGVSYDELLG | -4.58
HMGFLTGNTQGEVNRKTKNQMVNIFLPTTPNPTSGFLLFVPKKDILRLTMTVEEGIKMIISAGMLTPS | -0.527
HMGFTDREREIIRNDLVATGRELFGTFGLKKTSIEDLTKAVGIAQGSFYTFFNSKEELYLEVMDREGEA | -1.14
HMGGALSPDFGWLAMIDPDEGRAITLYDIASGEAIAVLDTHEARVAALAWSPDGTRLASGDQNGLIVQWEI | -0.31
HMGGEEPYGSGSLRLAAGAVVPSGYTIKGNEDSMLYHTTESPWYKQTIAEVWFNAESAAQRAGFTRWDAKD | -0.137
HMGGEIGSGKNGYVAFYKGKKVDVKADSMYGAQKTAAKYFNAKKEYDVNVVLAEVDGKQYVQS | 0.547
HMGGGVERLTPRQREVLGYMAEGRSNSWIAGAIGFSEKAVVQHTSKIYDALGLAVDADDHRRVLAVLRYLT | -1.44
HMGGKWKLRILWHIHHGDTRFSTLKRGIPEISEKILAQQLRELEEHQLIKRRVVTVMPPHVVYEL | -2.37
HMGGLAEIILNAIEIEGGFLPITDKSAPELIQSRLGMSKKAFKEAVGTLYKNRDIAIEPNGLRKI | -0.452
HMGGLALAEREVVEWLSQRNLLPSPDVVARAAAHPDGLGWLERSLAVLEGPRLFLGLGDLVPEP | -0.688
HMGGLAVQLVHAMTDQIRSGRLKAGDKLPTEAAIMKDFGVSRTVVREAISRLQASGWVDTRHGIGTFVLHQ | -2.1
HMGGLIEPLSARELEVLELMSLGKTNQEIARDLVVASGTIKAHAASIYRKLDAANRTEAVTHARELGIL | 0.471
HMGGPEVLELEDVKVGSPGPDEIKVTNHAIGLNYIDTYHRSGLYPLKLPSGIGLEAAGKVEEIGSNV | 0.00701
HMGGQEEALNRLVLRELLGTLEKKERDLIVRRYFYDQTQTKIAEALGISQVQVSRMEKRILKKMREGF | -0.98
HMGGRSARVRRAVLDAVVELLGEGGVRAVTIAEVAKRSGVNASSIYRRWRSIDALILDAAQDL | -2.51
HMGGSDIYLGAFNIPQGSVRVTSGGQALTEGKDFTIDYNLGSVKIINQAILNSGIPVSVSYENNAG | 0.0185
HMGGSLADAKRFLADLLADGPVPAKGVRADADGAGHTWPTIRRAQKALGIEATKTGMKGGWVWALPR | -0.165
HMGGSVYTVQKGDTLWSIAKEQLGSPLRYAEIYDLNKDVIEEAARGRGKKDSSNGHWLVVGTSLQIPEAT | 0.184
HMGGTAGKINAIGVNFRTGPSTSYTSLGLLGKDTAVTVIGTSGKWYKVTIVSTGKTGYVYATYVNLTP | -2.25
HMGGVIEDDRGQWAHPGEVTKINSNNITMKGVDFPVLGISDTGDKKMMQPGKDYKFDGNSVTEYPMA | -0.24
HMGGWEEGVYVVREGDTLSDIVHDAVKGTEIHPDFILNAIVRVNPSAFVRGNPSWMLAGKKIK | -0.0613
HMGGYVTGTIDLTKFGYAFVITEESEDDVFVAARNLNTALHGDQVKVLLYARHKGKRPEGEVVEIISRSRA | -2.35
HMGHEEPITFDRLPQAAQTFLKTHFDTLTVAYIVADRKFMGVEYEVKYTDRTEVDFRSDGQWESV | 0.085
HMGHKTLTVELQEKIENLPQTLDKYNLTLGNNKMSVDYTYSVKEKQTGITNLLQDLKEHKFDIVYLVGQDN | 0.343
HMGHLSNENAGRLLDRVLNDKIHAIMLGHLSKENNMPELAHEAVRMEITMGESRYKADDFPIYVA | -0.0465
HMGHTKLVVDIVEELKLEQGALLPILHAIQDELGYVPTKSVPFIADSLNLSRAEVHGVISFYHYFR | 0.153

Sequence | soluble fraction (log2)
HMGIAWGMLREQVAASDVSYRSEVLDILDRTPVWIYDAEGKIVDGRKKRLMDLQGGEPYRHMLEHFFPDLR | -2.43
HMGIDAIDNFVSKIIMKIEGLGESEVPTSTIGKFIMEGLQYLDTVAYVRYASVYKNFKEAKDFEQFVGSL | -0.0349
HMGIDRPLFTLAQFARQIGEQVKISLSLPQDGRRRLQGKVLSVGESGIVLDVDGREFTVAIGNVDKARL | -1.83
HMGIDSSVYVEARYELGHLYLKQKKYAAAYASFKEILDMYASTTPGVLPGAYNKLAEIGMKRIPKNKL | -2.66
HMGIIQAQIPGLVSRLFVKKGDKVAVNQRLFILEAMKMENEIDSPIQGMVEKIHITTGSKVEKGDLIMEIV | -2.9
HMGIIYGKNPVLEAISSGTTINKIYAQTSNKEIDSVIKEALKRKIIVVNTDKQKLDKMIDGKNSQGIIASI | 0.025
HMGIKAADIVTNDIQFNTQAQFDKYKDLYPTLGWGNYDPNKTYTMQGFKNKLKPNELFTGTPNLKIEDT | 0.486
HMGIKDRIVYIMEKEKLSIPLFAKKIGIGPSTLLHIIRGKNAPSLQVVQAIHKAYPDIDLNWLI | -1.66
HMGIKSSASLQEAAEKAQSAYYDIEHSGVATAVDIQRAWVAMVAAQIDAGEKLDSGTITLYERLKTST | 0.0117
HMGIMNFDTWLKSLPGTPTPTIAAKKSGLAAPTLLRHVERGYSTADNVIAIAKAYGVSPIDALVDNGML | -0.956
HMGIMSEITHRVLRLLGLLESRSTWTGSDLAERLGVTQRTIRRDVIRLRELGYQVDSVQGLDGGYRMS | -2.65
HMGIPVSIGQLDFNQARGNLALQVRASDFAALEQLRQRLGQTGESVQLGSASRDGDAVSARVVIGGQ | 0.0963
HMGIQQNHMTLHARSVASSANVPAEHFDTLVEKLIESGDIKVWKAREILMNLSRQHEEILDES | -0.789
HMGISGSDLEKMIRNILVNNTDVVETIKSGQDKKGKKQKFLQGLIMKEARGQTDPREAASLLAKLLE | -0.108
HMGITMFGQNLKKLRTSKNLSQSKLSKILGISSSTIGMYEQGRRFPDQTILTKIADFFDVSTDYLLGR | -0.819
HMGIVAQLPTIRVNGKTLYYYDAQSGDNIYSIAEKLGVTVEDIRANNPGVADGVKPRMRLFFPTSLAK | -0.377
HMGIVYGVIKENWDQDHPGMVKVEILQGESGKNVSDWIPVMSPYAGKEFGAYALPEIGTQAVVAFE | 0.24
HMGIYDQAAAAYIEFVESKNRAPKWNELIDALYKENGKDWIDRSTLHGLLRRKEFQELLAQKRKEHLV | -0.76
HMGIYFIIAAKNQENNIEEFIRTTLFRIVYGKEESINNITLVDLKSKDNTKNIMEEIARENENVKV | -0.641
HMGKAPREVQVGELLRVPALNAEGEVLRRDGESVELSIQGKKLRLPLAQLEAFSPRRFARRGEGKVRGRIE | 0.591
HMGKDLLGYEVFAESGDLVGILKDVMWLPHSDVYVITKGGKEFLIPVIPEVVKGINHEQGVIVISPMEGLL | -0.234
HMGKDTLKLKKNAIPYDENGKKLTNLGYSYIKKTTVLNYYGTKIINGSTYYFLGDGVYIKAANVGTTSH | -2.56
HMGKEYERALQQVTKSEIDSDEKLQQQMDALVNSPRISDKEDAWALLLVKKLRNEGVEWDELPDVLSERVQ | 0.159
HMGKGGVAYLLESEFGIELPKDMQREFGPIANDIVDSLGREVSGAELKSMFWKEYIERETPFLLLLVTGQL | 0.404
HMGKIFSELTPREIEVVRLIADGLSNQQIAEELFLSNGTVRNHISTILEKTGLEHRTQIAVMWLR | -0.139
HMGKKIVERRNTILNMVNKYGTLDFPQLRDAFPDVSDVTLRKDLQYLDSTKQAIRTHGGIKSI | -0.0604

Sequence | soluble fraction (log2)
HMGKLQFREKLNGILELGKEKHRVLTMEDVEKYFEEDALSEEQMELVYDYLLSQKIAVTGYVKK | -0.509
HMGKPPNNRIHRAKRDYALNLVKEHYPDFGPTLAAEKLAEHHGFTVSRETLRKWMIEDGIWLSRKQRR | -0.475
HMGKQIKEIVEEYYDSTSKNSPVGGSWKTSLDGVDLTSPNITIWTRTKIKYVDGSESIVTPQSL | -0.105
HMGKRPTIQMVAEMAGVSRGTVDRVLNGRSYVSAQVRQRVLAALQETGYISSREHHQQALQS | -0.691
HMGKRRGLKVAEEVFADRGYNPDGTLVNRSLPGAFVKDPDEAIARVIKMVKTKKVTAVNGEEIDIAADSI | -0.0957
HMGKSDEIFIQKSALYEELGQPDRALEMIYSALKSDSLNIDVLHRLVTLLINQNKNEDAILYNQKIID | -0.203
HMGKTEETLQMEKLVEALRRSGRMKYEDAYRIVYAAFPDAKDFEGMLSGAIRAGFIELQMGNDGAFLRAL | -0.859
HMGKVNGFEITVIEGKNVVGSITPRQAIAKNSDGVIQLRGEQSFSATDQVLINELAFYIKSNNLKA | -1.31
HMGLAALLQSGPVAGTVLSHQPGGKVVIAFQGQAYPLNLKGRTLQPGQSVLARMAGEQISLEVI | -1.14
HMGLDERNLKLFAASLLEQAGKKITESTMTYLLDKTGSDMENIQNEVEKIIGYTMNHTVVTTEDIDAV | 0.0873
HMGLDPVFKKWVDDNPWYTENRVLRALTHDYAEELKQTNPQLVGVEFLDQVKKRVQADHPEFFQ | 0.0133
HMGLGDLEVVDSIGKIRRDGQQMILAFGRHKGRDVQEVYNEDPRYINWLLSPKGIEDENGRGKVRDYLGIN | 0.0837
HMGLKQADFEELASRIFTVLEEKSMTPAEIVRKLNLEPDRISIVIQYLLDEGKLNIKDGFINNSA | -0.29
HMGLLGIYPNPVEGGSVRLLSDADLFGSRFELYDQSGKLVLNGFVTEGNFVSVKGISSGLYISVSYT | 0.245
HMGLLGTDISAETMIGYFKKIDLGFDEETQEVIVPSWRQDLLRDADIAEEVARFYGYDNIPTTLPSGEST | 0.0485
HMGLNLIGLKRSGFAPEEVKAMTRAYMYIFKSAEGNFESRLAKAHEKYKDDALIMEMVEFIDDALKG | -1.09
HMGLQEADKQDRIARMKELISFLNEAAKAYYQEGREIVSNLEYDKAYDALLSLEKESGVVLSGSPSQNVG | 0.321
HMGLRERLLNYIAYKGIDKATLERKSGLSNDAVNKMGDNTRVSTLDKISNAFPDINIAWLKTGVGEMILG | -0.306
HMGLSAALKARLREVINEMAKSGAQPKLREWALAEGIGNFAKPETPEAAEAVIAKAQELLAEA | 0.543
HMGLSASVIQMFADLGYTSEGRSTKEMITDYQIDHSIIKNSTEDGAGTYGPRTKASLSTVHAQYI | -0.0653
HMGLSENALAMLKQQETVLIRLIDGRGNQGALASINLIVSRILNLDIVDRTPEDLLRVIASEGEQND | -3.81
HMGMIRFSKEEQMLMMLYSPGSRLGLIAELESMKLQLNSRERKLRNLAESVLKKLEQITDEEFMQFDF | -2.19
HMGMNSGQADFRGISLALSVDAEAEAQRLFTALADGGQVQMPLSKTFFSPAFGMVADRFGVGWMVVTN | 0.238
HMGMSENIDKVAGGIPYKVEGNKAIINEPLDDATKERLMGKAKEHGYHAAPNQAGGITITLK | -0.0517
HMGMSKQKQSSLVRIIMQEISDANEGRMKMSQIIDAALIKGISDSTVRSVISRLSTTGAIYEPQTGTYEW | -0.649
